Laboratory results published in article PMC9638876 (EMBO Reports, 2022).

Molecular target: GST-tagged Gcn4 (transcription factor Gcn4) (S. cerevisiae, UniProt P03069 1-281)
Assay: pull-down

GST-tagged Gcn4 (transcription factor Gcn4), sequence (P03069 whole entry): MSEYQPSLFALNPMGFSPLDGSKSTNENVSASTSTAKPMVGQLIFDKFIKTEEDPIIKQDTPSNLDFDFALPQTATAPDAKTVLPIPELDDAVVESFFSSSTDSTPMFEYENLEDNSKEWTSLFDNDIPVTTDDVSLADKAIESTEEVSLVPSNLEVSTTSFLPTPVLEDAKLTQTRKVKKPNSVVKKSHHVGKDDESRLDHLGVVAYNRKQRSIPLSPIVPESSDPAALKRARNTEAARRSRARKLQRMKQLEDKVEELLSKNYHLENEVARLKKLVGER

B1: His-tagged Rpb9 (RNA polymerase II subunit Rpb9) (natural protein, S. cerevisiae, UniProt P27999 1-122, looked up)
chain: MTTFRFCRDCNNMLYPREDKENNRLLFECRTCSYVEEAGSPLVYRHELITNIGETAGVVQDIGSDPTLPRSDRECPKCHSRENVFFQSQQRRKDTSMVLFFVCLSCSHIFTSDQKNKRTQFS
binding result: binds
